Here are results for 6 sequences from the supplement of paper PMC5998384.

In series [1] the test system is HeLa Kyoto. Briefly: solubility change mitosis vs G1/S (difference of NP-40 vs SDS log2 ratios) (log2 ratio difference); higher = more soluble in mitosis.
Series [2] relates to HeLa Kyoto. As to the kind of experiment: thermal stability score vs G1/S (z-score of summed log2 fold changes over temperatures); higher = more thermally stable than in G1/S.
Series [3] has as its system HeLa Kyoto. Briefly: solubility in G1/S (NP-40 vs SDS abundance) (log2 ratio); higher = more soluble. The conditions noted are these: cell cycle stage: G1/S.
Where [4] appears, read: cell cycle stage: early G1 (4.5 h after nocodazole release).
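Throughout, for solubility change mitosis vs G1/S (difference of NP-40 vs SDS log2 ratios): synchronized HeLa Kyoto cells (double thymidine block for G1/S, nocodazole release for mitosis), protein amounts in NP-40 versus SDS lysates quantified by mass spectrometry, three biological replicates.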
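Throughout, for solubility in G1/S (NP-40 vs SDS abundance): HeLa Kyoto cells arrested at G1/S by double thymidine block, proteins quantified by TMT10plex mass spectrometry in mild NP-40 versus SDS extracts, three biological replicates.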
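Throughout, for thermal stability score vs G1/S (z-score of summed log2 fold changes over temperatures): synchronized HeLa Kyoto cells, proteins quantified by TMT10plex mass spectrometry, three biological replicates, mitosis taken 0.5 h after nocodazole release, G1/S directly after double thymidine block.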

Consider “MQRAAALVRRGCGPRTPSSWGRSQSSAAAEASAVLKVRPERSRRERILTLESMNPQVKAVEYAVRGPIVLKAGEIELELQRGIKKPFTEVIRANIGDAQAMGQQPITFLRQVMALCTYPNLLDSPSFPEDAKKRARRILQACGGNSLGSYSASQGVNCIREDVAAYITRRDGGVPADPDNIYLTTGASDGISTILKILVSGGGKSRTGVMIPIPQYPLYSAVISELDAIQVNYYLDEENCWALNVNELRRAVQEAKDHCDPKVLCIINPGNPTGQVQSRKCIEDVIHFAWEEKLFLLADEVYQDNVYSPDCRFHSFKKVLYEMGPEYSSNVELASFHSTSKGYMGECGYRGGYMEVINLHPEIKGQLVKLLSVRLCPPVSGQAAMDIVVNPPVAGEESFEQFSREKESVLGNLAKKAKLTEDLFNQVPGIHCNPLQGAMYAFPRIFIPAKAVEAAQAHQMAPDMFYCMKLLEETGICVVPGSGFGQREGTYHFRMTILPPVEKLKTVLQKVKDFHINFLEKYA [GPT2]”, for which the “solubility change mitosis (log2)” value with HeLa Kyoto [1] amounted to 0.017. The thermal stability score is -0.2 in the series with HeLa Kyoto [2] (setting [4]) and -0.215 with HeLa Kyoto [2] (cell cycle stage: mitosis). Further, the “solubility in G1/S (log2)” value in the series on HeLa Kyoto [3] was 0.0799.
Regarding “MQSKVTGNMPTQSLLMYMDGPEVIGSSLGSPMEMEDALSMKGTAVVPFRATQEKNVIQIEGYMPLDCMFCSQTFTHSEDLNKHVLMQHRPTLCEPAVLRVEAEYLSPLDKSQVRTEPPKEKNCKENEFSCEVCGQTFRVAFDVEIHMRTHKDSFTYGCNMCGRRFKEPWFLKNHMRTHNGKSGARSKLQQGLESSPATINEVVQVHAAESISSPYKICMVCGFLFPNKESLIEHRKVHTKKTAFGTSSAQTDSPQGGMPSSREDFLQLFNLRPKSHPETGKKPVRCIPQLDPFTTFQAWQLATKGKVAICQEVKESGQEGSTDNDDSSSEKELGETNKGSCAGLSQEKEKCKHSHGEAPSVDADPKLPSSKEKPTHCSECGKAFRTYHQLVLHSRVHKKDRRAGAESPTMSVDGRQPGTCSPDLAAPLDENGAVDRGEGGSEDGSEDGLPEGIHLDKNDDGGKIKHLTSSRECSYCGKFFRSNYYLNIHLRTHTGEKPYKCEFCEYAAAQKTSLRYHLERHHKEKQTDVAAEVKNDGKNQDTEDALLTADSAQTKNLKRFFDGAKDVTGSPPAKQLKEMPSVFQNVLGSAVLSPAHKDTQDFHKNAADDSADKVNKNPTPAYLDLLKKRSAVETQANNLICRTKADVTPPPDGSTTHNLEVSPKEKQTETAADCRYRPSVDCHEKPLNLSVGALHNCPAISLSKSLIPSITCPFCTFKTFYPEVLMMHQRLEHKYNPDVHKNCRNKSLLRSRRTGCPPALLGKDVPPLSSFCKPKPKSAFPAQSKSLPSAKGKQSPPGPGKAPLTSGIDSSTLAPSNLKSHRPQQNVGVQGAATRQQQSEMFPKTSVSPAPDKTKRPETKLKPLPVAPSQPTLGSSNINGSIDYPAKNDSPWAPPGRDYFCNRSASNTAAEFGEPLPKRLKSSVVALDVDQPGANYRRGYDLPKYHMVRGITSLLPQDCVYPSQALPPKPRFLSSSEVDSPNVLTVQKPYGGSGPLYTCVPAGSPASSSTLEGKRPVSYQHLSNSMAQKRNYENFIGNAHYRPNDKKT [ZNF217]”, in the series with HeLa Kyoto [1], the “solubility change mitosis (log2)” value amounted to 0.0502. Further, the thermal stability score with HeLa Kyoto [2] (setting [4]) is -1.13; in the series on HeLa Kyoto [2] (cell cycle stage: mitosis), -0.808. Moreover, in the series on HeLa Kyoto [3], the “solubility in G1/S (log2)” value is -0.201.
For “MSDILRELLCVSEKAANIARACRQQEALFQLLIEEKKEGEKNKKFAVDFKTLADVLVQEVIKQNMENKFPGLEKNIFGEESNEFTNDWGEKITLRLCSTEEETAELLSKVLNGNKVASEALARVVHQDVAFTDPTLDSTEINVPQDILGIWVDPIDSTYQYIKGSADIKSNQGIFPCGLQCVTILIGVYDIQTGVPLMGVINQPFVSRDPNTLRWKGQCYWGLSYMGTNMHSLQLTISRRNGSETHTGNTGSEAAFSPSFSAVISTSEKETIKAALSRVCGDRIFGAAGAGYKSLCVVQGLVDIYIFSEDTTFKWDSCAAHAILRAMGGGIVDLKECLERNPETGLDLPQLVYHVENEGAAGVDRWANKGGLIAYRSRKRLETFLSLLVQNLAPAETHT [INPP1]”, the “solubility change mitosis (log2)” value in the series on HeLa Kyoto [1] is -0.114. In addition, the thermal stability score with HeLa Kyoto [2] (setting [4]) is 0.000408; with HeLa Kyoto [2] (cell cycle stage: mitosis) it was -0.083. The “solubility in G1/S (log2)” value with HeLa Kyoto [3] turned out to be 0.0309.
On to “MSFNLQSSKKLFIFLGKSLFSLLEAMIFALLPKPRKNVAGEIVLITGAGSGLGRLLALQFARLGSVLVLWDINKEGNEETCKMAREAGATRVHAYTCDCSQKEGVYRVADQVKKEVGDVSILINNAGIVTGKKFLDCPDELMEKSFDVNFKAHLWTYKAFLPAMIANDHGHLVCISSSAGLSGVNGLADYCASKFAAFGFAESVFVETFVQKQKGIKTTIVCPFFIKTGMFEGCTTGCPSLLPILEPKYAVEKIVEAILQEKMYLYMPKLLYFMMFLKSFLPLKTGLLIADYLGILHAMDGFVDQKKKL [SDR16C5]”, for which the “solubility change mitosis (log2)” value in the series with HeLa Kyoto [1] was -0.0428. In addition, the results for the thermal stability score in the series on HeLa Kyoto [2] (setting [4]) and with HeLa Kyoto [2] (cell cycle stage: mitosis) were 0.864 and -0.987, respectively. For the same sequence, the “solubility in G1/S (log2)” value in the series on HeLa Kyoto [3] is -0.478.
As for “MSQGILSPPAGLLSDDDVVVSPMFESTAADLGSVVRKNLLSDCSVVSTSLEDKQQVPSEDSMEKVKVYLRVRPLLPSELERQEDQGCVRIENVETLVLQAPKDSFALKSNERGIGQATHRFTFSQIFGPEVGQASFFNLTVKEMVKDVLKGQNWLIYTYGVTNSGKTHTIQGTIKDGGILPRSLALIFNSLQGQLHPTPDLKPLLSNEVIWLDSKQIRQEEMKKLSLLNGGLQEEELSTSLKRSVYIESRIGTSTSFDSGIAGLSSISQCTSSSQLDETSHRWAQPDTAPLPVPANIRFSIWISFFEIYNELLYDLLEPPSQQRKRQTLRLCEDQNGNPYVKDLNWIHVQDAEEAWKLLKVGRKNQSFASTHLNQNSSRSHSIFSIRILHLQGEGDIVPKISELSLCDLAGSERCKDQKSGERLKEAGNINTSLHTLGRCIAALRQNQQNRSKQNLVPFRDSKLTRVFQGFFTGRGRSCMIVNVNPCASTYDETLHVAKFSAIASQLVHAPPMQLGFPSLHSFIKEHSLQVSPSLEKGAKADTGLDDDIENEADISMYGKEELLQVVEAMKTLLLKERQEKLQLEMHLRDEICNEMVEQMQQREQWCSEHLDTQKELLEEMYEEKLNILKESLTSFYQEEIQERDEKIEELEALLQEARQQSVAHQQSGSELALRRSQRLAASASTQQLQEVKAKLQQCKAELNSTTEELHKYQKMLEPPPSAKPFTIDVDKKLEEGQKNIRLLRTELQKLGESLQSAERACCHSTGAGKLRQALTTCDDILIKQDQTLAELQNNMVLVKLDLRKKAACIAEQYHTVLKLQGQVSAKKRLGTNQENQQPNQQPPGKKPFLRNLLPRTPTCQSSTDCSPYARILRSRRSPLLKSGPFGKKY [KIF20A]”, the “solubility change mitosis (log2)” value with HeLa Kyoto [1] was -0.0791. The thermal stability score came out at 0.449 in the series on HeLa Kyoto [2] (setting [4]) and 3.61 with HeLa Kyoto [2] (cell cycle stage: mitosis). Further, the “solubility in G1/S (log2)” value in the series on HeLa Kyoto [3] is -0.582.
For the sequence “MSQGSPGDWAPLDPTPGPPASPNPFVHELHLSRLQRVKFCLLGALLAPIRVLLAFIVLFLLWPFAWLQVAGLSEEQLQEPITGWRKTVCHNGVLGLSRLLFFLLGFLRIRVRGQRASRLQAPVLVAAPHSTFFDPIVLLPCDLPKVVSRAENLSVPVIGALLRFNQAILVSRHDPASRRRVVEEVRRRATSGGKWPQVLFFPEGTCSNKKALLKFKPGAFIAGVPVQPVLIRYPNSLDTTSWAWRGPGVLKVLWLTASQPCSIVDVEFLPVYHPSPEESRDPTLYANNVQRVMAQALGIPATECEFVGSLPVIVVGRLKVALEPQLWELGKVLRKAGLSAGYVDAGAEPGRSRMISQEEFARQLQLSDPQTVAGAFGYFQQDTKGLVDFRDVALALAALDGGRSLEELTRLAFELFAEEQAEGPNRLLYKDGFSTILHLLLGSPHPAATALHAELCQAGSSQGLSLCQFQNFSLHDPLYGKLFSTYLRPPHTSRGTSQTPNASSPGNPTALANGTVQAPKQKGD [LPCAT4]”, the “solubility change mitosis (log2)” value in the series with HeLa Kyoto [1] was -0.122. Further, the thermal stability score turned out to be 0.358 in the series on HeLa Kyoto [2] (setting [4]) and 0.234 in the series with HeLa Kyoto [2] (cell cycle stage: mitosis). Also, the “solubility in G1/S (log2)” value in the series with HeLa Kyoto [3] was -0.0461.
